Experimental findings from patent US20210309732A1 (ELIXIRON IMMUNOTHERAPEUTICS HONG KONG, published 2021) are described below.

Where a chain is given by its changes, count along the chain named.

The chains are these.
B1: 1D2 SDR mutant HK54F (antibody, IgG1, V domains shown)
VH: QVQLVQSGAEVKKPGASVKVSCEASGYTFTDKYLHWVRQAPGQGLEWMAWINPFSGGTFYAQNFKGRVTVTRDTSINTAYLELTSLRLDDTSTYYCARGRDYYDQGAADLWGQGTMVTVSS
VL: DIQLTQSPSSLSASVGDRVTITCRASQGINSVLAWYQQKPGKAPKLLLYAASKLESGVPSRFSGSGSGTDYTLTISSLQPEDFGTYYCQQYYSPVRTFGQGTKVEIKR
notes: also called X3 F
B2: 1D2 SDR mutant HQ105E (antibody, IgG1, V domains shown)
VH: B1 VH with F54K, Q105E
VL: B1 VL
notes: also called X7 E
B3: 1D2 SDR mutant HK54I (antibody, IgG1, V domains shown)
VH: B1 VH with F54I
VL: B1 VL
notes: also called X3 I
B4: 1D2 SDR mutant HR100M (antibody, IgG1, V domains shown)
VH: B1 VH with F54K, R100M
VL: B1 VL
notes: also called X4 M
B5: 1D2 SDR mutant HR100E (antibody, IgG1, V domains shown)
VH: B1 VH with F54K, R100E
VL: B1 VL
notes: also called X4 E
B6: 1D2 SDR mutant HR100A (antibody, IgG1, V domains shown)
VH: B1 VH with F54K, R100A
VL: B1 VL
notes: also called X4 A
B7: 1D2 SDR mutant HR100S (antibody, IgG1, V domains shown)
VH: B1 VH with F54K, R100S
VL: B1 VL
notes: also called X4 S
B8: 1D2 SDR mutant HQ105L (antibody, IgG1, V domains shown)
VH: B1 VH with F54K, Q105L
VL: B1 VL
notes: also called X7 L
B9: 1D2 SDR mutant HK54S (antibody, IgG1, V domains shown)
VH: B1 VH with F54S
VL: B1 VL
notes: also called X3 S
B10: 1D2 SDR mutant HQ105V (antibody, IgG1, V domains shown)
VH: B1 VH with F54K, Q105V
VL: B1 VL
notes: also called X7 V
B11: 1D2 SDR mutant HQ105W (antibody, IgG1, V domains shown)
VH: B1 VH with F54K, Q105W
VL: B1 VL
notes: also called X7 W
B12: 1D2 SDR mutant HK54H (antibody, IgG1, V domains shown)
VH: B1 VH with F54H
VL: B1 VL
notes: also called X3 H
B13: 1D2 SDR mutant HR100I (antibody, IgG1, V domains shown)
VH: B1 VH with F54K, R100I
VL: B1 VL
notes: also called X4 I
B14: 1D2 SDR mutant HQ105M (antibody, IgG1, V domains shown)
VH: B1 VH with F54K, Q105M
VL: B1 VL
notes: also called X7 M
B15: 1D2 SDR mutant HY102A (antibody, IgG1, V domains shown)
VH: B1 VH with F54K, Y102A
VL: B1 VL
notes: also called X5 A
B16: 1D2 SDR mutant HY102L (antibody, IgG1, V domains shown)
VH: B1 VH with F54K, Y102L
VL: B1 VL
notes: also called X5 L
B17: 1D2 SDR mutant HK54N (antibody, IgG1, V domains shown)
VH: B1 VH with F54N
VL: B1 VL
notes: also called X3 N
B18: 1D2 SDR mutant HK54V (antibody, IgG1, V domains shown)
VH: B1 VH with F54V
VL: B1 VL
notes: also called X3 V
B19: 1D2 SDR mutant HR100G (antibody, IgG1, V domains shown)
VH: B1 VH with F54K, R100G
VL: B1 VL
notes: also called X4 G
B20: 1D2 SDR mutant HK54M (antibody, IgG1, V domains shown)
VH: B1 VH with F54M
VL: B1 VL
notes: also called X3 M
B21: 1D2 SDR mutant HK54W (antibody, IgG1, V domains shown)
VH: B1 VH with F54W
VL: B1 VL
notes: also called X3 W
B22: 1D2 SDR mutant HQ105G (antibody, IgG1, V domains shown)
VH: B1 VH with F54K, Q105G
VL: B1 VL
notes: also called X7 G
B23: 1D2 SDR mutant HR100T (antibody, IgG1, V domains shown)
VH: B1 VH with F54K, R100T
VL: B1 VL
notes: also called X4 T
B24: 1D2 SDR mutant HR100V (antibody, IgG1, V domains shown)
VH: B1 VH with F54K, R100V
VL: B1 VL
notes: also called X4 V
B25: 1D2 SDR mutant HY102I (antibody, IgG1, V domains shown)
VH: B1 VH with F54K, Y102I
VL: B1 VL
notes: also called X5 I
B26: 1D2 SDR mutant HY102G (antibody, IgG1, V domains shown)
VH: B1 VH with F54K, Y102G
VL: B1 VL
notes: also called X5 G
B27: 1D2 SDR mutant HK54P (antibody, IgG1, V domains shown)
VH: B1 VH with F54P
VL: B1 VL
notes: also called X3 P
B28: 1D2 SDR mutant HR100Q (antibody, IgG1, V domains shown)
VH: B1 VH with F54K, R100Q
VL: B1 VL
notes: also called X4 Q
B29: 1D2 SDR mutant HR100P (antibody, IgG1, V domains shown)
VH: B1 VH with F54K, R100P
VL: B1 VL
notes: also called X4 P
B30: 1D2 SDR mutant HK54T (antibody, IgG1, V domains shown)
VH: B1 VH with F54T
VL: B1 VL
notes: also called X3 T
B31: 1D2 SDR mutant HQ105T (antibody, IgG1, V domains shown)
VH: B1 VH with F54K, Q105T
VL: B1 VL
notes: also called X7 T
B32: 1D2 SDR mutant HR100C (antibody, IgG1, V domains shown)
VH: B1 VH with F54K, R100C
VL: B1 VL
notes: also called X4 C
B33: 1D2 SDR mutant HR100L (antibody, IgG1, V domains shown)
VH: B1 VH with F54K, R100L
VL: B1 VL
notes: also called X4 L
B34: 1D2 SDR mutant HQ105S (antibody, IgG1, V domains shown)
VH: B1 VH with F54K, Q105S
VL: B1 VL
notes: also called X7 S
B35: 1D2 SDR mutant HK54Q (antibody, IgG1, V domains shown)
VH: B1 VH with F54Q
VL: B1 VL
notes: also called X3 Q
B36: 1D2 SDR mutant HK54R (antibody, IgG1, V domains shown)
VH: B1 VH with F54R
VL: B1 VL
notes: also called X3 R
B37: 1D2 SDR mutant HY102F (antibody, IgG1, V domains shown)
VH: B1 VH with F54K, Y102F
VL: B1 VL
notes: also called X5 F

In the test the target is T1, recombinant human GM-CSF (human, UniProt P04141 18-144).
T1 construct: also called rhGM-CSF; CSF2
T1 sequence (P04141 18-144 limits assumed): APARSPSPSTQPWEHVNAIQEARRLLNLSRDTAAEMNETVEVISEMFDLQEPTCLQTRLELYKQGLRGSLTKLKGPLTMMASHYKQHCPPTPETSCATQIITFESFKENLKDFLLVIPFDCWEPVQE
In words: ELISA on coated rhGM-CSF, UBA relative to 1D2. The source says:
Some of the residues in the CDRs are essential for epitope binding affinity and/or specificity. A number of computational methods were developed to detect these functional residues, generally known as ‘specificity-determining resides’ (SDRs). […] Based on the analysis, 7 amino acid residues in VH and 3 amino acid residues in VL were selected as the SDRs. The residues are labeled X₁ to X₁₀ for the ease of reference. The SDRs on VH are: Heavy chain D31 (HD31) (X₁), HK32 (X₂), HK54(X₃), HR100 (X₄), HY102 (X₅), HY103 (X₆) and HQ105 (X₇). The SDRs on VL are Light chain V32 (LV32) (X₈), LP94 (X₉) and LV95 (X₁₀). The SDRs were subsequently mutated by site-directed mutagenesis to other amino acids to generate mutant VH or VL clones. HEK293 cells were co-transfected with a vector encoding a mutant VH paired with a vector encoding a wild type VL or a vector encoding a wild type VH paired with a vector encoding a mutant VL. The antibody clones were harvested from the culture medium. The binding affinity of each antibody clone to human GM-CSF was tested by ELISA. The ELISA was done according to the following procedures. ELISA plate was coated with 50 μl of rhGM-CSF at 1 μg/mL. The plate was washed with 200 μl PBST for three times, followed by blocking with 1% BSA for 1 hour at room temperature. The antibody clones to be tested were diluted at 1:12000. 100 μl of the diluted antibodies were added to the cell at 100 μl/well. The plate was incubated at room temperature for 1 hour. The plate was then washed and incubated with 1:5000 diluted goat-anti-human secondary antibody conjugated with HRP at room temperature for one hour. The ELISA assay was developed with 100 μl developing buffer containing H₂O₂-Amplx Red per well in the dark for 5 min and the fluorescence intensity was read at Ex.530/Em.590 nm, with cutoff at 570 nm. The Unit Binding Activity (UBA) of each sample was calculated as the fluorescence signal/antibody clone dilution factor.
As to B1, the “binding affinity % of 1D2” value is 67%. With B2, the “binding affinity % of 1D2” value worked out at 173%. For B3, the “binding affinity % of 1D2” value was 100%. Under B4 stands 94%; under B5, 92%; under B6, 76%. Under B7 stands 72%. As to B8, the “binding affinity % of 1D2” value stood at 63%. Under B9 stands 82%; under B10, 155%.

With B11, the “binding affinity % of 1D2” value came to 68%. Under B12 stands 74%; under B13, 80%. Under B14 stands 148%; under B15, 68%.

Regarding B16, the “binding affinity % of 1D2” value was found to be 86%.

Regarding B17, the “binding affinity % of 1D2” value was 73%. For B18, the “binding affinity % of 1D2” value was 74%. Under B19 stands 125%; under B20, 106%. Under B21 stands 88%; under B22, 105%. Under B23 stands 93%. Turning to B24, the “binding affinity % of 1D2” value came out at 74%.

B25: the “binding affinity % of 1D2” value was 64%. Under B26 stands 89%. Under B27 stands 85%; under B28, 57%. As to B29, the “binding affinity % of 1D2” value was 101%. Under B30 stands 101%; under B31, 133%. Consider B32, for which the “binding affinity % of 1D2” value worked out at 89%. Under B33 stands 69%; under B34, 134%; under B35, 93%. Under B36 stands 98%; under B37, 71%.
